This note sets out measurements from patent publication US20130330346A1 (Novartis, published 2013).

Test [1] has as its target T1, Cynomolgus CXCR2 (cynomolgus, UniProt Q28519 3-353 (rhesus entry)).
T1 construct: On transfected HEK293T or RBL-2H3 cells; native on cynomolgus neutrophils in the WBSC assay; also called cCXCR2; cynoCXCR2
T1 chain: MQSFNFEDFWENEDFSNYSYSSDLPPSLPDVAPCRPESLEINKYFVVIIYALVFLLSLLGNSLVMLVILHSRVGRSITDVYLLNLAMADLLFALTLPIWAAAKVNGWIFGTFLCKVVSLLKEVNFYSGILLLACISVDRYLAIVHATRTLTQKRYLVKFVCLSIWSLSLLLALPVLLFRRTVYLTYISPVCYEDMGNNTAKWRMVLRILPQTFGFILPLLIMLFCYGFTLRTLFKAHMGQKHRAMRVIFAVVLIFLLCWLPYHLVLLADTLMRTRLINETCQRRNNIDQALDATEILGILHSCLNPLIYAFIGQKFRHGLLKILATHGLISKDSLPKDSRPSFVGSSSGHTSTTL
Description: FACS competition vs 3 nM FMAT-Blue Gro-α. The protocol:
(§1) Multivalent anti-CXCR2Nanobodies were titrated against 3 nM FMAT-Blue-labeled Gro-α in the FACS ligand competition assay on human and cynomolgus CXCR2 (Table 14). On human CXCR2, blocking potencies range between double digit nM and sub-nM whereas on cynomolgus CXCR2, they range between single and double digit nM.

The target of test [2] is T2, Human CXCR2 (human, UniProt P25025 1-360).
T2 construct: Some cell lines carry an N-terminal 3xHA tag; also called hCXCR2; huCXCR2
T2 sequence: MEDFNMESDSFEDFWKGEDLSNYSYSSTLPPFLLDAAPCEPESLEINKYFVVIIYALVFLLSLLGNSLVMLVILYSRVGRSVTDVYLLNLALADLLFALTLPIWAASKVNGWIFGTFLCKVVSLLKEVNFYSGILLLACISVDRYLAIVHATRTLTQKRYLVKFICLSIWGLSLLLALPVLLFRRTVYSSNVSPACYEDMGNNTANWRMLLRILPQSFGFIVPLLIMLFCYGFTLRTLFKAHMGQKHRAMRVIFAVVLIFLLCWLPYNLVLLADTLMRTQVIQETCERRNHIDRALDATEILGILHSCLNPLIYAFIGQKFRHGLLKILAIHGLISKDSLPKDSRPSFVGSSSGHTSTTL
Description: FACS competition vs 3 nM FMAT-Blue Gro-α. The protocol:
as §1

Test [3] has as its target T1, Cynomolgus CXCR2. Description: cell-based or functional assay.
For test [4], the target named is T2, Human CXCR2. Kind of test: cell-based or functional assay.

B1: CXCR20016 (other)
chain: EVQLVESGGGLVQPGGSVRLSCVASGIIFRLSALGWTRQGPGKAREWVAGINSDGTTNYADPVKGRFTISRDNAKNTIYLHMDMLKPEDTAVYYCASGKYRGQGTQVTVSSGGGGSGGGGSGGGGSGGGGSGGGGSGGGGSGGGGSEVQLVESGGELVQPGGSLRLSCAASGSILTINAMGWYRQAPGKQRELVVRRTRGGSTTYQDSVKGRFTISADIAKKTMYLQMNSLKPEDTAVYYCMLDDRGGVYWGQGTQVTVSS
notes: Two different VHH joined by a GlySer linker; also called 137B7-35GS-2B2; not shown: C-terminal c-myc tag and His6 tag coded by pAX100
What is called IC50 is the point on the concentration scale where inhibition reaches its midpoint. Lower therefore signals higher potency. With B1, the “% inhibition of max” value in test [1] was 88%; in test [2], 100%. In addition, the IC50 came out at 5.7 nM in test [1] and 0.8 nM in test [2]. The “FLIPR % inhibition of max” value in test [3] and in test [4] was 100% throughout. In addition, the “FLIPR IC50 (GRO-α induced calcium release)” value is 1100 nM in test [3] and 2.36 nM in test [4].

B2: CXCR20013 (bispecific antibody)
chain: EVQLVESGGELVQPGGSLRLSCAASGSILTINAMGWYRQAPGKQRELVVRRTRGGSTTYQDSVKGRFTISADIAKKTMYLQMNSLKPEDTAVYYCMLDDRGGVYWGQGTQVTVSSGGGGSGGGGSGGGGSGGGGSGGGGSGGGGSGGGGSEVQLVESGGGLVQPGGSLRLSCVASGSIVRINTMGWYRQTPGKQRELVADITSGGNINYIDAVKGRFTISRDNTKNTVYLQMNSLKPEDTAVYYCNAEIVVLVGVWTQRARTGNYWGQGTQVTVSS
notes: Biparatopic: two VHH joined by a GlySer linker; also called 2B2-35GS-97A9; not shown: C-terminal c-myc tag and His6 tag coded by pAX100
B2: in test [1], the “% inhibition of max” value stood at 98.5% and the IC50 worked out at 4.2 nM. In addition, in test [2], the “% inhibition of max” value turned out to be 90% and the IC50 is 0.9 nM. For the same molecule, in test [3], the “FLIPR % inhibition of max” value turned out to be 100% and the “FLIPR IC50 (GRO-α induced calcium release)” value amounted to 29.2 nM. In addition, in test [4], the “FLIPR % inhibition of max” value worked out at 100% and the “FLIPR IC50 (GRO-α induced calcium release)” value worked out at 2.93 nM.

B3: CXCR20018 (other)
chain: EVQLVESGGGLVQPGGSVRLSCVASGIIFRLSALGWTRQGPGKAREWVAGINSDGTTNYADPVKGRFTISRDNAKNTIYLHMDMLKPEDTAVYYCASGKYRGQGTQVTVSSGGGGSGGGGSGGGGSGGGGSGGGGSGGGGSGGGGSEVQLVESGGGLVQPGGSLRLSCVASGSIVRINTMGWYRQTPGKQRELVADITSGGNINYIDAVKGRFTISRDNTKNTVYLQMNSLKPEDTAVYYCNAEIVVLVGVWTQRARTGNYWGQGTQVTVSS
notes: Two different VHH joined by a GlySer linker; also called 137B7-35GS-97A9; not shown: C-terminal c-myc tag and His6 tag coded by pAX100
In the case of B3, in test [1], the “% inhibition of max” value came out at 47% and the IC50 amounted to 50.8 nM. Further, in test [2], the “% inhibition of max” value is 98% and the IC50 is 1.9 nM.

B4: CXCR20011 (VHH)
chain: EVQLVESGGGLVQPGGSLRLSCVASGSIVRINTMGWYRQTPGKQRELVADITSGGNINYIDAVKGRFTISRDNTKNTVYLQMNSLKPEDTAVYYCNAEIVVLVGVWTQRARTGNYWGQGTQVTVSSGGGGSGGGGSGGGGSGGGGSGGGGSGGGGSGGGGSEVQLVESGGGLVQPGGSLRLSCVASGSIVRINTMGWYRQTPGKQRELVADITSGGNINYIDAVKGRFTISRDNTKNTVYLQMNSLKPEDTAVYYCNAEIVVLVGVWTQRARTGNYWGQGTQVTVSS
notes: Bivalent: two VHH joined by a GlySer linker; also called 97A9-35GS-97A9; not shown: C-terminal c-myc tag and His6 tag coded by pAX100
In the case of B4, in test [1], the “% inhibition of max” value came out at 60% and the IC50 turned out to be 97.4 nM. In test [2], the “% inhibition of max” value was determined as 99% and the IC50 came to 35.2 nM. In addition, in test [4], the “FLIPR % inhibition of max” value was determined as 100% and the “FLIPR IC50 (GRO-α induced calcium release)” value was found to be 137 nM.

B5: CXCR20029 (other)
chain: EVQLVESGGGLVQPGGSLRLSCVASGRIFSSNAMGWFRQAPGKEREFVAAITWRSGGSAYYADSAKGRFTISRDNAKNTVYLQMNSLKPEDTAVYYCAAGGSSWLSFPPDYWGQGTQVTVSSGGGGSGGGGSGGGGSGGGGSGGGGSGGGGSGGGGSEVQLVESGGGLVQAGGSLTLSCAVSGSTFRINTMGWYRRAPGKQRELVAARDRGGYINYVDSVKGRFTVSRDNAKPTMYLQMNSLKPEDTAVYYCHAGTQDRTGRNFDRWGQGTQVTVSS
notes: Biparatopic: two VHH joined by a GlySer linker; also called 163E3-35GS-54B12; not shown: C-terminal c-myc tag and His6 tag coded by pAX100
Take B5: in test [1], the “% inhibition of max” value turned out to be 98.5% and the IC50 was determined as 2.09 nM. Further, in test [2], the “% inhibition of max” value amounted to 98.5% and the IC50 came to 1.13 nM. In test [3], the “FLIPR % inhibition of max” value stood at 100% and the “FLIPR IC50 (GRO-α induced calcium release)” value is 10.1 nM. For the same molecule, in test [4], the “FLIPR % inhibition of max” value worked out at 100% and the “FLIPR IC50 (GRO-α induced calcium release)” value was 17.1 nM.

B6: CXCR20027 (bispecific antibody)
chain: EVQLVESGGGLVQPGGSLRLSCVASGRIFSSNAMGWFRQAPGKEREFVAAITWRSGGSAYYADSAKGRFTISRDNAKNTVYLQMNSLKPEDTAVYYCAAGGSSWLSFPPDYWGQGTQVTVSSGGGGSGGGGSGGGGSGGGGSGGGGSGGGGSGGGGSEVQLVESGGGLVQAGGSLRLSCAASGRTFSDYAMGWFRQAPGKEREFVAAITWNGGRVFYTASVKGRFTISRDNAKNTMYLQMNSLKPEDTAVYYCAADKDRRTDYLGHPVAYWGQGTQVTVSS
notes: Two different VHH joined by a GlySer linker; also called 163E3-35GS-163D2; not shown: C-terminal c-myc tag and His6 tag coded by pAX100
Turning to B6, the “% inhibition of max” value in test [1] was found to be 97%; in test [2], 100%. Moreover, the IC50 in test [1] is 6.42 nM; in test [2] it was 4.9 nM. For the same molecule, the “FLIPR % inhibition of max” value in test [3] and in test [4] was 100% throughout. Also, the “FLIPR IC50 (GRO-α induced calcium release)” value was 12.7 nM in test [3] and 17.8 nM in test [4].

B7: CXCR20019 (VHH)
chain: EVQLVESGGELVQPGGSLRLSCAASGSILTINAMGWYRQAPGKQRELVVRRTRGGSTTYQDSVKGRFTISADIAKKTMYLQMNSLKPEDTAVYYCMLDDRGGVYWGQGTQVTVSSGGGGSGGGSEVQLVESGGELVQPGGSLRLSCAASGSILTINAMGWYRQAPGKQRELVVRRTRGGSTTYQDSVKGRFTISADIAKKTMYLQMNSLKPEDTAVYYCMLDDRGGVYWGQGTQVTVSS
notes: Bivalent: two VHH joined by a 9GS linker; also called 2B2-9GS-2B2; not shown: C-terminal c-myc tag and His6 tag coded by pAX100
Consider B7, for which the “% inhibition of max” value in test [1] is 81%; in test [2], 50.6%. Also, the IC50 in test [1] turned out to be 1.8 nM; in test [2], 0.044 nM.

B8: CXCR20015 (other)
chain: EVQLVESGGELVQPGGSLRLSCAASGSILTINAMGWYRQAPGKQRELVVRRTRGGSTTYQDSVKGRFTISADIAKKTMYLQMNSLKPEDTAVYYCMLDDRGGVYWGQGTQVTVSSGGGGSGGGGSGGGGSGGGGSGGGGSGGGGSGGGGSEVQLVESGGGLVQPGGSVRLSCVASGIIFRLSALGWTRQGPGKAREWVAGINSDGTTNYADPVKGRFTISRDNAKNTIYLHMDMLKPEDTAVYYCASGKYRGQGTQVTVSS
notes: Two different VHH joined by a GlySer linker; also called 2B2-35GS-137B7; not shown: C-terminal c-myc tag and His6 tag coded by pAX100
In the case of B8, the results for the “% inhibition of max” value in test [1] and in test [2] were 81.5% and 99%, respectively. The IC50 was 99 nM in test [1] and 0.7 nM in test [2]. The “FLIPR % inhibition of max” value in test [3] and in test [4] was 100% throughout. Moreover, the “FLIPR IC50 (GRO-α induced calcium release)” value amounted to 2870 nM in test [3] and 2.78 nM in test [4].

B9: CXCR20012 (other)
chain: EVQLVESGGGLVQPGGSVRLSCVASGIIFRLSALGWTRQGPGKAREWVAGINSDGTTNYADPVKGRFTISRDNAKNTIYLHMDMLKPEDTAVYYCASGKYRGQGTQVTVSSGGGGSGGGGSGGGGSGGGGSGGGGSGGGGSGGGGSEVQLVESGGGLVQPGGSVRLSCVASGIIFRLSALGWTRQGPGKAREWVAGINSDGTTNYADPVKGRFTISRDNAKNTIYLHMDMLKPEDTAVYYCASGKYRGQGTQVTVSS
notes: Bivalent: two VHH joined by a GlySer linker; also called 137B7-35GS-137B7; not shown: C-terminal c-myc tag and His6 tag coded by pAX100
For B9, in test [2], the “% inhibition of max” value came out at 99.1% and the IC50 turned out to be 0.606 nM.

B10: CXCR20036 (other)
chain: EVQLVESGGGLVQAGGSLTLSCAVSGSTFRINTMGWYRRAPGKQRELVAARDRGGYINYVDSVKGRFTVSRDNAKPTMYLQMNSLKPEDTAVYYCHAGTQDRTGRNFDRWGQGTQVTVSSGGGGSGGGGSGGGGSGGGGSGGGGSGGGGSGGGGSEVQLVESGGGLVQAGGSLRLSCAASGRTFSDYAMGWFRQAPGKEREFVAAITWNGGRVFYTASVKGRFTISRDNAKNTMYLQMNSLKPEDTAVYYCAADKDRRTDYLGHPVAYWGQGTQVTVSS
notes: Biparatopic: two VHH joined by a GlySer linker; also called 54B12-35GS-163D2; 54B12-163D2; not shown: C-terminal c-myc tag and His6 tag coded by pAX100
As to B10, in test [1], the “% inhibition of max” value is 98% and the IC50 turned out to be 2.27 nM. Besides, in test [2], the “% inhibition of max” value turned out to be 98% and the IC50 was determined as 0.7 nM. Further, in test [3], the “FLIPR % inhibition of max” value was 100% and the “FLIPR IC50 (GRO-α induced calcium release)” value was found to be 4.27 nM. Further, in test [4], the “FLIPR % inhibition of max” value amounted to 100% and the “FLIPR IC50 (GRO-α induced calcium release)” value came to 7.86 nM.
